{"source": "paper PMC10690772", "biological_target": "ConCv5 KIKO 473T SOSIP soluble gp140 Env trimer (HIV-1 (clade C consensus))", "test": "SEC; analytical size exclusion chromatography of 10 µg of the final purified protein pool"}
{"substance": "ConCv5 KIKO 473T SOSIP soluble gp140 Env trimer (complex)", "values": [{"measurement": "stoichiometry N", "result": 3}]}
